Experimental findings from US20170198056A1 (MEDICINAL CHEMISTRY PHARMACEUTICALS, published 2017) are described below.

For the assay, the target named is T1, MUC1 expressed on breast cancer cells (OCUB-M, MCF-7) (human, UniProt P15941 24-1255, native O-glycosylation of the cancer cells, not defined).
T1 construct: whole, on cells; OCUB-M cells were fixed and treated with Triton X-100; MCF-7 cells were fixed with formaldehyde; also called MUC1 expressing cells
In words: immunofluorescence staining of fixed OCUB-M breast cancer cells, 10 ug/mL antibody.

T1 sequence (P15941 24-1255): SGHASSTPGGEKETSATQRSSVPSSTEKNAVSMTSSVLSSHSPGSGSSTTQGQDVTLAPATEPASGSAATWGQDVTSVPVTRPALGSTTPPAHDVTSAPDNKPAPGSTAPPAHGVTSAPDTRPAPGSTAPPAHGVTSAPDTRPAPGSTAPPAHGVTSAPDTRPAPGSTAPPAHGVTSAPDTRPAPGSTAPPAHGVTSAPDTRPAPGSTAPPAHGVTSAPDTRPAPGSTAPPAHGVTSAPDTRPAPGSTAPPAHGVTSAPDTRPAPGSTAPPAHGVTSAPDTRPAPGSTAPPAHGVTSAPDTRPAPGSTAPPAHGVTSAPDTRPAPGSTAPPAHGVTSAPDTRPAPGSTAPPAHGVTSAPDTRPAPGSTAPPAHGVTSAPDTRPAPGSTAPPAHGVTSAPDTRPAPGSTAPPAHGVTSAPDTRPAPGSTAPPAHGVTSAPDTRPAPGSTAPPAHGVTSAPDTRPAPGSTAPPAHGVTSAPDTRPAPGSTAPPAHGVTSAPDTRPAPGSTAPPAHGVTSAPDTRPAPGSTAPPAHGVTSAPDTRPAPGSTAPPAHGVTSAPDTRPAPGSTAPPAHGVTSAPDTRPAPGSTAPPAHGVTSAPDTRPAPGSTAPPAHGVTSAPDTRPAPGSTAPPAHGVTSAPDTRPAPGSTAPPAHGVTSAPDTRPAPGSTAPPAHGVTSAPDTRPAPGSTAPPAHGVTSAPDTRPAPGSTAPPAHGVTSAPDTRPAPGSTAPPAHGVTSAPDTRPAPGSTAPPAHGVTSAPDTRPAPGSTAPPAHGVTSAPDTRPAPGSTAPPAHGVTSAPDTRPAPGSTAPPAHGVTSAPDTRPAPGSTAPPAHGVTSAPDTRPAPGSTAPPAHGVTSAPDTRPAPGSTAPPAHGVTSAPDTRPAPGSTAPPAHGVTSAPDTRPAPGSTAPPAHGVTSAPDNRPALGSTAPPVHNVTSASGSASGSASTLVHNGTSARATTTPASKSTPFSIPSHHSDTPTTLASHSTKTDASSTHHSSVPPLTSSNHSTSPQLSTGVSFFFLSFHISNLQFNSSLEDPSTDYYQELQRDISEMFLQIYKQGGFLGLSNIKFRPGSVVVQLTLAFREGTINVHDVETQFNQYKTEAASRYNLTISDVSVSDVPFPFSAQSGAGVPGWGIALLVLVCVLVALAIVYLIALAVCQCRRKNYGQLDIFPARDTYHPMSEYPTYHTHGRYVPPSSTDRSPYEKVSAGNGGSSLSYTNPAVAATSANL

B1: Monoclonal antibody SN-101 (antibody, V domains shown)
VH: EVNLEESGGGLVQPGGSMKLSCVASGFTFSNYWMNWVRQSPEKGLEWVAQIRLKSDNYATHYAESVKGRFTISRDDSKSSVYLQMNNLRAEDTGIYYCTGGVFDYWGQGTTLTVSS
VL: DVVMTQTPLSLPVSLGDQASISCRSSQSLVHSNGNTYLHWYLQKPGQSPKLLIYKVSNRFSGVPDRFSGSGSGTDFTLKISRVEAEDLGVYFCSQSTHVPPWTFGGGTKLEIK
notes: Mouse monoclonal antibody from a hybridoma; it was purified on Protein G and detected with anti-mouse IgG; The array assay used culture supernatant diluted 10-fold; also called antibody of hybridoma strain 3A9-4B1 (NITE BP-01845)
Take B1: the binding result is recorded as “binds”.

B2: Monoclonal antibody SN-102 (antibody, V domains shown)
VH: EVQLQQSGAELVKPGASVKLSCTASGFNIKDYYMHWVKQRTEQGLEWIGRIDPEDGETKYAPKFQGKAIITADTSSNTAYLQLSSLTSEDTAVYYCVHFYYGYDVGRGYWGQGTTLTVSS
VL: DIVMSQSPSSLAVSVGEKVTMSCKSSQSLLYSSNQKNYLAWYQQKPGQSPKLLIYWASTRESGVPDRFTGSGSGTDFTLTISSVKAEDLAVYYCQQYYSYTFGGGTKLEIK
notes: Mouse monoclonal antibody from a hybridoma; it was purified on Protein G and detected with anti-mouse IgG; The array assay used culture supernatant diluted 10-fold; also called antibody of hybridoma strain 3C10-E11
Turning to B2, the binding result is on record as “binds”.
